Results on two molecules are retold here after US20220280636A1.

Assay [1] has as its target mouse whole molecule IgG (mouse). Kind of assay: SPR; IgG amine coupled to CM5 chip, construct flowed at 750 ug/ml; end-point RU of association phase. On the technique in general: Surface plasmon resonance follows binding to a sensor surface in real time, without labels.
Assay [2] concerns the target rabbit whole molecule IgG (rabbit). The assay is described as above.
Assay [3] deals with human whole molecule IgG (human). Described as above.
Assay [4] addresses human IgG Fc (human). The assay is described as above.
Assay [5] deals with guinea pig whole molecule IgG (guinea pig). The assay is described as above.
The target in assay [6] is mouse whole molecule IgG (mouse). Kind of assay: SPR; IgG amine coupled to CM5 chip, control flowed at 490 ug/ml at the end of the serial flows; end-point RU of association phase.
The target in assay [7] is rabbit whole molecule IgG (rabbit). Described as above.
For assay [8], the target named is human whole molecule IgG (human). The description is as above.
The target in assay [9] is human IgG Fc (human). The assay is described as above.
The target in assay [10] is guinea pig whole molecule IgG (guinea pig). The assay is described as above.
Assay [11] concerns the target rabbit whole molecule IgG (rabbit). Kind of assay: SPR; IgG amine-coupled to CM5 chip, control flowed at 490 ug/ml at the start of the serial flows; end-point RU of association phase.
Assay [12] has as its target human whole molecule IgG (human). The description is as above.
The target of assay [13] is mouse whole molecule IgG (mouse). The assay can be described thus: SPR; IgG amine coupled to CM5 chip, control flowed at 490 ug/ml at the start of the serial flows; end-point RU of association phase.
Assay [14] addresses rabbit whole molecule IgG (rabbit). The assay is described as above.
In assay [15] the target is human whole molecule IgG (human). The assay is described as above.
Assay [16] has as its target human IgG Fc (human). The description is as above.
Assay [17] concerns the target guinea pig whole molecule IgG (guinea pig). The description is as above.
Assay [18] has as its target rabbit whole molecule IgG (rabbit). Kind of assay: SPR; IgG amine-coupled to CM5 chip, control flowed at 490 ug/ml at the end of the serial flows; end-point RU of association phase.
Assay [19] deals with human whole molecule IgG (human). Described as above.
Assay [20] has as its target human IgG Fc (human). The assay is described as above.
The target of assay [21] is rabbit whole molecule IgG (rabbit). The assay is described as above. The source holds these as a separate data set.
For assay [22], the target named is human whole molecule IgG (human). Described as above. This is another data set of the same source.
Assay [23] concerns the target human IgG Fc (human). The description is as above. This is another data set of the same source.
The target of assay [24] is rabbit whole molecule IgG (rabbit). Kind of assay: SPR; IgG amine-coupled to CM5 chip, control flowed at 490 ug/ml at the start of the serial flows; end-point RU of association phase. This is another data set of the same source.
Assay [25] concerns the target human whole molecule IgG (human). Described as above. The source holds these as a separate data set.
Assay [26] has as its target human IgG Fc (human). The description is as above.

B1: gE-1t 419 (protein)
chain: GTPKTSWRRVSVGEDVSLLPAPGPTGRGPTQKLLWAVEPLDGCGPLHPSWVSLMPPKQVPETVVDAACMRAPVPLAMAYAPPAPSATGGLRTDFVWQERAAVVNRSLVIHGVRETDSGLYTLSVGDIKDPARQVASVVLVVQPAPVPTPPPTPADYDEDDNDEGEDESLAGTPASGTPRLPPPPAPPRSWPSAPEVSHVRGVTVRMETPEAILFSPGETFSTNVSIHAIAHDDQTYSMDVVWLRFDVPTSCAEMRIYESCLYHPQLPECLSPADAPCAASTWTSRLAVRSYAGCSRTNPPPRCSAEAHMEPVPGLAWQAASVNLEFRDASPQHSGLYLCVVYVNDHIHAWGHITISTAAQYRNAVVEQPLPQRGADLAEPTHPHVGAPPHAPPTHGALR
Consider B1, for which the RU Post Association in assay [1] was 4 RU; in assay [2], 188 RU; in assay [3], 127 RU; with human IgG Fc (human) [4] it was 69 RU; in assay [5], 27 RU.

B2: gE-1t 411 (protein)
chain: GTPKTSWRRVSVGEDVSLLPAPGPTGRGPTQKLLWAVEPLDGCGPLHPSWVSLMPPKQVPETVVDAACMRAPVPLAMAYAPPAPSATGGLRTDFVWQERAAVVNRSLVIHGVRETDSGLYTLSVGDIKDPARQVASVVLVVQPAPVPTPPPTPADYDEDDNDEGEDESLAGTPASGTPRLPPPPAPPRSWPSAPEVSHVRGVTVRMETPEAILFSPGETFSTNVSIHAIAHDDQTYSMDVVWLRFDVPTSCAEMRIYESCLYHPQLPECLSPADAPCAASTWTSRLAVRSYAGCSRTNPPPRCSAEAHMEPVPGLAWQAASVNLEFRDASPQHSGLYLCVVYVNDHIHAWGHITISTAAQYRNAVVEQPLPQRGADLAEPTHPHVGAPPHA
Consider B2, for which the RU Post Association was determined as 8 RU in assay [6]; 223 RU in [7]; 144 RU in [8]; 72 RU in the assay with human IgG Fc (human) [9]; 30 RU in [10]; 221 RU in assay [11]. Further, the RU Post Association in assay [12] was 145 RU; in assay [13] it was 4 RU; in assay [14], 231 RU; in [15] it was 147 RU; with human IgG Fc (human) [16], 77 RU; in assay [17], 32 RU. The RU Post Association in assay [18] was determined as 221 RU; in [19], 150 RU; with human IgG Fc (human) [20], 75 RU; in [21], 228 RU; in assay [22], 152 RU; in the assay with human IgG Fc (human) [23], 76 RU. For the same molecule, the figures for the RU Post Association (in assay [24]; in assay [25]; in the assay with human IgG Fc (human) [26]) were 228 RU, 157 RU and 80 RU, respectively.
